# T1: canine PD-1/PD-L1 binding (Canis lupus familiaris, UniProt A0A8I3P7C4)
# T1 construct: made in house; host or cells: Expi293F
# T1 sequence (A0A8I3P7C4 19-237): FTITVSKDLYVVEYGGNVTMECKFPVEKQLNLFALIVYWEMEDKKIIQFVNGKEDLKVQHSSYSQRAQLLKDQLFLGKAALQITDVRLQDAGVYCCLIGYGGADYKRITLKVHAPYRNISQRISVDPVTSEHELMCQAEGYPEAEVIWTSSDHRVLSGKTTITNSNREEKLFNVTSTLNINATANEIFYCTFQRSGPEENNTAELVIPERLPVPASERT
# Key:
# [1] = test system: canine CD80/PD-L1 binding; assay: Canine CD80/PD-L1 binding inhibition ELISA (cCD80-Ig immobilized, cPD-L1-Ig); details: antibody 0, 2.5, 5 and 10 μg/ml
# Protocol: Using the canine PD-1-Ig, PD-L1-Ig and CD80-Ig (described above), anti-PD-L1 antibody was tested for its ability to inhibit canine PD-1/PD-L1 binding and CD80/PD-L1 binding. Briefly, canine PD-1-Ig or CD80-Ig was immobilized on flat-bottom 96-well plates.
# [2] = biological target: T1, canine PD-1/PD-L1 binding; assay: Canine PD-1/PD-L1 binding inhibition ELISA (cPD-1-Ig immobilized, biotinylated cPD-L1-Ig); details: antibody 0, 2.5, 5 and 10 μg/ml
# Protocol: Briefly, canine PD-1-Ig (prepared in 2.4 above) was immobilized on flat bottomed 96-well plates and blocked with 1% BSA and 0.05% Tween 20-containing PBS. […] The binding of cPD-L1-Ig to cPD-1-Ig was measured by color reaction using Neutravidin-HRP (Thermo Fisher Scientific) and TMB one component substrate (Bethyl Laboratories).
# Briefly, heavy chain and light chain variable region genes were identified from hybridomas producing rat anti-bovine PD-L1 monoclonal antibodies 4G12 and 6G7. Further, the heavy chain and light chain variable region genes of the above rat antibodies were linked to the constant region of heavy chain IgG4 and the constant region of light chain Lambda of a known canine antibody, respectively, to prepare nucleotide sequences, followed by codon optimization (SEQ ID NOS: 9 and 10 (amino acid sequences), SEQ ID NOS: 19 and 20 (nucleotide sequences after codon optimization). Then, synthesis of genes was performed so that NotI restriction enzyme recognition site. KOZAK sequence, chimeric antibody's light chain sequence, poly-A addition signal sequence (PABGH), promoter sequence (PCMV), SacI restriction enzyme recognition site, intron sequence (INRBG), KOZAK sequence, chimeric antibody's heavy chain sequence and XbaI restriction enzyme recognition site would be located in this order. […]
# canine PBMCs = assay: Canine immune cell activation: SEB-stimulated PBMCs, cytokine ELISA and EdU uptake; assay type: cell-based; details: SEB stimulation
# oral melanoma = assay: Clinical trials in dogs with oral melanoma (Clinical Trials 1, 3, 4); assay type: in vivo, dog
# Protocol: Briefly, tumor tissue samples fixed with formaldehyde and embedded in paraffin were sliced into 4 μm thick sections with a microtome, attached to and dried on silane-coated slide glass (Matsunami Glass) and deparaffinized with xylene/alcohol. While the resultant sections were soaked in citrate buffer [citric acid (Wako Pure Chemical) 0.37 g, trisodium citrate dihydrate (Kishida Chemical) 2.4 g, distilled water 1000 ml], antigen retrieval treatment was performed for 10 min with microwave, followed by staining using a Nichirei automatic immuno-staining device. As pretreatment, sample sections were soaked in 0.3% hydrogen peroxide-containing methanol solution at room temperature for 15 min and washed with PBS. Then, anti-bovine PD-L1 monoclonal antibody was added and reaction was conducted at room temperature for 30 min. After washing with PBS, histofine simple stain MAX-PO (Rat) (Nichirei Bioscience) was added and reaction was carried at room temperature for 30 min, followed by coloring with 3,3′-diaminobenzidine tetrahydrocholride and observation with a light microscope. Dogs with oral melanoma or undifferentiated sarcoma in which tumor cells were PD-L1 positive were used in the following inoculation test (clinical trial).
# With respect to the rat-canine chimeric anti-PD-L1 antibody c4G12 to be inoculated into dogs in the clinical trial, the culture supernatant obtained by the procedures described in 2.8 above was purified by affinity chromatography using MabSelect SuRe LX (GE Healthcare) and then by hydroxyapatite chromatography using BioScale CHT20-I prepacked column (Bio-Rad) in order to remove contaminants and polymeric proteins. Aggregate-containing fractions were further purified by anion exchange chromatography using HiScreen Q-Sepharose HP prepacked column (GE Healthcare).
# (1) Safety Test: The established rat-canine chimeric anti-PD-L1 antibody c4G12 was administered intravenously into a dog (beagle, spayed female, 13-year-old, about 10 kg in body weight) at 2 mg/kg, every 2 weeks, 3 times in total. […] (2) Clinical Trial 1: The established rat-canine chimeric anti-PD-L1 antibody c4G12 was administered intravenously into a PD-L1 positive dog with relapsed oral melanoma (FIG. 9A) (miniature dachshund, male, 11-year-old, about 7.5 kg in body weight) at 2 mg/kg or 5 mg/kg, every 2 weeks, 22 times in total.
molecule,measurement,setting,value
"c4G12: rat-canine chimeric anti-PD-L1 antibody, 4G12 variable regions, canine IgG-D/Lambda constant regions; light chain SEQ ID NO: 9, heavy chain SEQ ID NO: 10 (antibody, chimeric H chain; chimeric L chain) heavy: MGWSQIILFLVAAATCVHSQVQLQQSGAELVKPGSSVKISCKASGYTFTSNFMHWVKQQPGNGLEWIGWIYPEYGNTKYNQKFDGKATLTADKSSSTAYMQLSSLTSEDSAVYFCASEEAVISLVYWGQGTLVTVSSASTTAPSVFPLAPSCGSTSGSTVALACLVSGYFPEPVTVSWNSGSLTSGVHTFPSVLQSSGLYSLSSTVTVPSSRWPSETFTCNVVHPASNTKVDKPVPKESTCKCISPCPVPESLGGPSVFIFPPKPKDILRITRTPEITCVVLDLGREDPEVQISWFVDGKEVHTAKTQPREQQFNSTYRVVSVLPIEHQDWLTGKEFKCRVNHIGLPSPIERTISKARGQAHQPSVYVLPPSPKELSSSDTVTLTCLIKDFFPPEIDVEWQSNGQPEPESKYHTTAPQLDEDGSYFLYSKLSVDKSRWQQGDTFTCAVMHEALQNHYTDLSLSHSPGK light: MESQTHVLISLLLSVSGTYGDIAITQSPSSVAVSVGETVTLSCKSSQSLLYSENQKDYLGWYQQKPGQTPKPLIYWATNRHTGVPDRFTGSGSGTDFTLIISSVQAEDLADYYCGQYLVYPFTFGPGTKLELKQPKASPSVTLFPPSSEELGANKATLVCLISDFYPSGVTVAWKASGSPVTQGVETTKPSKQSNNKYAASSYLSLTPDKWKSHSSFSCLVTHEGSTVEKKVAPAECS",Inhibitory activity against canine CD80/PD-L1 binding,[1],reduced the amounts of binding
same,Inhibitory activity against canine PD-1/PD-L1 binding,[2],reduced the amounts of binding
same,IFN-γ production from canine PBMCs,"canine PBMCs; 3 days, ELISA",increased
same,IL-2 production from canine PBMCs,"canine PBMCs; 3 days, ELISA",increased
same,EdU uptake in canine CD4+ and CD8+ lymphocytes (cell proliferation),"canine PBMCs; EdU added at day 2, flow cytometry",enhanced
same,Criterion of PR (30% or more reduction in longest tumor diameter vs baseline),oral melanoma; Clinical Trial 1,satisfied at weeks 16-20 and at week 34 and thereafter
same,Metastases to lymph nodes or the lung,"oral melanoma; Clinical Trial 1, observation period of 44 weeks",no metastases to lymph nodes or the lung were observed
same,Pulmonary metastatic lesions at week 18,"oral melanoma; Clinical Trial 3, primary lesion removed by surgery, 2 or 5 mg/kg i.v. every 2 weeks, 9 times",a plurality of pulmonary metastatic lesions disappeared
same,Tumor size during observation period,"oral melanoma; Clinical Trial 4, 4 dogs with pulmonary metastasis, 2 or 5 mg/kg i.v. every 2 weeks",no clear reduction in tumor size

# From US11312773B2, “Anti-PD-L1 antibody” (Fuso Pharmaceutical Industries, Ltd., priority 2016, dated 2022)
